According to patent publication US20190248902A1 (published 2019):

Tests used:
[1] = target: T1, human ASGR-1 mutant construct H203 (human, UniProt P07306 1-291); experiment: FACS, transfected CHO-S cells, mAb 5 ug/ml
T1 construct: Arg/Glu scanning: non-arginine residues were changed to arginine; Transiently expressed on CHO-S cells
T1 sequence: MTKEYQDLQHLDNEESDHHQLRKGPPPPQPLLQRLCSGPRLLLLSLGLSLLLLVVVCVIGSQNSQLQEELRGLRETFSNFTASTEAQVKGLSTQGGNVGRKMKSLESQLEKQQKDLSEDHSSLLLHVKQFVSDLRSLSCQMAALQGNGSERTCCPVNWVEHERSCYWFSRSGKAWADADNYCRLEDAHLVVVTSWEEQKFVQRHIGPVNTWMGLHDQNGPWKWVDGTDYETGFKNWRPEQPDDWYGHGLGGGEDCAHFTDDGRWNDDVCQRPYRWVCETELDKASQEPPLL
Description: (§1) The ability of human ASGR-1-specific, ligand competing antibodies to bind to the mutant hASGR-1 proteins was assessed by FACS as described above.
(§2) Antibodies were tested for binding to the individual mutant and wild type ASGR-1 constructs using normalized antibody concentrations (5 ug/ml). CHO—S cells transiently expressing the appropriate mutated or non-mutated antigen of interest were mixed with antibody sample or controls, incubated for 1 hour at 4° C., and then washed twice. Cells with bound antibody were then incubated with Alexa Fluor® 647 IgG Fc fragment-specific detection antibody and 7-AAD viability stain for 15 minutes at 4° C., washed once and resuspended in FACS buffer. Samples were analyzed using a BD Accuri™ Flow Cytometer and an Intellicyt HyperCyt Autosampler. As a negative control, supernatants and controls were also screened against CHO—S cells transfected with empty parental vector (referred to as mock). […] Because mutant hASGR-1 expression levels varied relative to each other, sample binding data for each construct was normalized for expression by dividing the binding data from an antibody not affected by the mutations (e.g., 65C12) by the binding values of each test antibody on a given mutant construct. Also, because the antibody binding affinities varied amongst the samples, the expression corrected data (above) was further normalized by comparing test antibody binding on each mutant construct to wild type hASGR-1. Identification of specific mutations that affected test antibody binding was performed by an interquartile range (IQR) analysis to determine statistical outliers. A mutation was identified as a “hit” if the calculated values were >3× the IQR (above the 3rd quartile/upper fence) for a given mutant construct. Although IQR analysis was used here to determine signifance and identify hits, one skilled in the art will recognize that a number of methods could be employed in order to normalize the data (eg. using epitope-tagged constructs or other ASGR-1-binding antibodies directed against non-CBD epitopes).

[2] = target: T2, human ASGR-1 (wild type) (human, UniProt P07306 1-291); experiment: FACS, transfected CHO-S cells, mAb 5 ug/ml
T2 construct: also called wt ASGR1; huASGR-1
T2 sequence: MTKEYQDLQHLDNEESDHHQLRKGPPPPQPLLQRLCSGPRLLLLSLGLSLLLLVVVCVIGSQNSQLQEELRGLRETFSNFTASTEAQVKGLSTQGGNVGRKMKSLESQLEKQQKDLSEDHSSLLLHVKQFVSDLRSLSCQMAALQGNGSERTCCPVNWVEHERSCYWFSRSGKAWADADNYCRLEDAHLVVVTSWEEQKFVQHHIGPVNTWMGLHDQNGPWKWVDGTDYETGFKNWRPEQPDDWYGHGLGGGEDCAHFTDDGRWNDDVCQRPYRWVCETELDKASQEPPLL
Description: as §1, §2

[3] = target: T1, human ASGR-1 mutant construct H203; experiment: FACS ratio: H203 normalized value / wt normalized value
Description: as §1, §2

[4] = target: T1, human ASGR-1 mutant construct H203; experiment: FACS ratio: 65C12 geomean / this mAb geomean
Description: (§3) Mutant hASGR-1 variants were constructed such that non-arginine residues were changed to arginine and where wild type arginine residues were mutated to glutamic acid. Each mutant hASGR-1 sequence was then cloned into a mammalian expression vector and used to transiently transfect CHOs cells. The ability of human ASGR-1-specific, ligand competing antibodies to bind to the mutant hASGR-1 proteins was assessed by FACS as described above.
(§4) Antibodies were tested for binding to the individual mutant and wild type ASGR-1 constructs using normalized antibody concentrations (5 ug/ml). CHO—S cells transiently expressing the appropriate mutated or non-mutated antigen of interest were mixed with antibody sample or controls, incubated for 1 hour at 4° C., and then washed twice. Cells with bound antibody were then incubated with Alexa Fluor® 647 IgG Fc fragment-specific detection antibody and 7-AAD viability stain for 15 minutes at 4° C., washed once and resuspended in FACS buffer. Samples were analyzed using a BD Accuri™ Flow Cytometer and an Intellicyt HyperCyt Autosampler. As a negative control, supernatants and controls were also screened against CHO—S cells transfected with empty parental vector (referred to as mock). […] Because mutant hASGR-1 expression levels varied relative to each other, sample binding data for each construct was normalized for expression by dividing the binding data from an antibody not affected by the mutations (e.g., 65C12) by the binding values of each test antibody on a given mutant construct. Also, because the antibody binding affinities varied amongst the samples, the expression corrected data (above) was further normalized by comparing test antibody binding on each mutant construct to wild type hASGR-1. Identification of specific mutations that affected test antibody binding was performed by an interquartile range (IQR) analysis to determine statistical outliers. A mutation was identified as a “hit” if the calculated values were >3× the IQR (above the 3rd quartile/upper fence) for a given mutant construct.

[5] = target: T2, human ASGR-1 (wild type); experiment: FACS ratio: 65C12 geomean / this mAb geomean
Description: as §3, §4

B1: 175F4 (antibody, V domains shown)
VH: QVQLQQSGPGLVKPSQTLSLTCAISGDSVSSNSAAWNWIRQSPSRGLEWLGRTYYRSKWYNAYPVSMESRISINPDTSKNQFSLQLNSVTPEDTAVYYCARDKAAGRNDFYYYGMDVWGQGTTVTVSS
VL: QSALTQPASVSGSPGQSITISCTGTSSDVGRFNLVSWYQQHPGYAPKLMIYEVSKRPSGVSNRFSGSKSGNTASLTISGLQAEDEADYYCCSYAGSSTYVVFGGGTKLTVL
notes: mAb
[1]
  FACS Binding Geomean: 14800
[2]
  FACS Binding Geomean: 33600
[3]
  Normalization to wt ASGR1 Binding: 1.04
[4]
  Expression Normalization to mAb 65C12: 1.74
[5]
  Expression Normalization to mAb 65C12: 1.67

B2: 72F5 (antibody, V domains shown)
VH: EVQLLESGGGLVQPGGSLRLSCAASGFTFSSYAMIWVRQAPGKGLEWVSTISGSGGYTYSADSVKGRFTISRDNSKNTLYLQMNSLRAEDTAVYYCARRIAVTGTEWYDPWGQGTLVTVSS
VL: DIQMTQSPSSLSASVGDRVIIPCRASQNISSYLNWYQQKPGKAPKLLIYAASSLQSGVPSRFSGSGSGTDFTLTISSLQPEDFATYSCQQTYSTPTFGQGTRLDIN
notes: mAb
[1]
  FACS Binding Geomean: 10500
[2]
  FACS Binding Geomean: 28000
[3]
  Normalization to wt ASGR1 Binding: 1.22
[4]
  Expression Normalization to mAb 65C12: 2.45
[5]
  Expression Normalization to mAb 65C12: 2

B3: 147E9 (antibody, V domains shown)
VH: EVQLVESGGGLVQPGGSLRLSCAASGFTFSSYSMNWVRQAPGKGLEWVSSISGRNTTIYYADSVKGRFTISRDNAKNSLYLQMNSLRDEDTAVYYCSRDRGSCWGQGTLVTVSS
VL: DIQMTQSPSSLSASVGDRVTITCRASQDINNYLAWFQQKPGKAPKSLIVAASSLQSGVPSKFSGSGSGTDFTLTISSLQPEDFATYYCQQYNSYPLTFGGGTKVEIK
notes: mAb
[1]
  FACS Binding Geomean: 21500
[2]
  FACS Binding Geomean: 40200
[3]
  Normalization to wt ASGR1 Binding: 0.858
[4]
  Expression Normalization to mAb 65C12: 1.2
[5]
  Expression Normalization to mAb 65C12: 1.4

B4: 52H2 (antibody, V domains shown)
VH: EVQLLESGGGLVQPGGSLRLSCAASGFTFSRNAMSWVRQAPGMGLEWVSAISGRGGNTFYADSVKGRFTVSRDNSKNTLFLQMNSLRAEDTAVYYCAKNGREQWLDYWGQGTLVTVSS
VL: DIQMTQSPSSVSASVGDRVTITCRASQNITNWLAWFQQKPGRAPKLLIYTTSSLQSGVPSRFSGSGSGTDFTLTISSLQPEDFATYCCQQTNSFPWTFGHGTKVEVK
notes: mAb
[1]
  FACS Binding Geomean: 18600
[2]
  FACS Binding Geomean: 48000
[3]
  Normalization to wt ASGR1 Binding: 1.18
[4]
  Expression Normalization to mAb 65C12: 1.38
[5]
  Expression Normalization to mAb 65C12: 1.17

B5: 149D11 (antibody, V domains shown)
VH: EVQLLESGGGLVQPGGSLRLSCAASGFTFSSYAMSWVRQAPGKGLEWVSAISGRGGNTFYADSVKGRFTISRDNSKNTLYRQMNSLRAEDTAVYYCAKKDYDYVWGSPYFDYWGQGTLVTVSS
VL: DIQMTQSPASVSASVGDRVTITCRASQNISNWLTWYQQKPGKAPKLLIYAASSLQSGVPSRFSGSGSGTDFTLSISSLQPEDFATYYCQQTDSFPFTFGPGTKVDVK
notes: mAb
[1]
  FACS Binding Geomean: 8870
[2]
  FACS Binding Geomean: 23600
[3]
  Normalization to wt ASGR1 Binding: 1.22
[4]
  Expression Normalization to mAb 65C12: 2.91
[5]
  Expression Normalization to mAb 65C12: 2.38

B6: 151B9 (antibody, V domains shown)
VH: EVQLLESGGGLVQPGGSLRLSCAASGFTFSSYAMSWVRQAPGKGLEWVSVISGGGSSTYYADSVKGRFTISRDNSKNTLYLQMNSLRAEDTAVYYCAKWRGNPTDYGMDVWGQGTTVTVSS
VL: SYELTQPPSVSVSPGQTASIACSGDNLGDKYASWYQQKPGQSPVLVIYQDSKRPSGIPERFSGSNSGNTATLTISGIQAMDEADYYCQAWDSSTVVFGGGTKLTVL
notes: mAb
[1]
  FACS Binding Geomean: 9740
[2]
  FACS Binding Geomean: 23500
[3]
  Normalization to wt ASGR1 Binding: 1.11
[4]
  Expression Normalization to mAb 65C12: 2.65
[5]
  Expression Normalization to mAb 65C12: 2.38
